Reference: US10076576B2, “Minimally toxic prodrugs” (priority 2012, dated 2018)
“Also recorded” adds a separate entry of the source. Where two headings read alike, the source gives them in different places.

Columns and labels:
[1] = assay type: in vivo, CD1 mice
Source text: FIG. 13. Evaluation of chronic cardiotoxicity of PhAc-ALGP-Dox in CD-1 mice. Animals received 10 intravenous injections (arrows) of saline (●); Doxorubicin 6.9 μmol/kg (▪) or of PhAc-ALGP-Dox at 13.8 (▴), 27.6 (×), 55.2 (*) and 82.8 μmol/kg (◯). Results represent the evolution of the average relative body weight (%). †=dead mouse.
Chronic cardiac toxicity of PhAc-ALGP-Dox in mice was morphologically evaluated as previously described by Bertazzoli et al. 1979 (Cancer Treat Rep 63, 1877-1883). CD1 female white mice were treated by bolus intravenous injection in the tail vein at 10 μL/g (6 mice per group). Compounds were injected twice a week, ten times. Animals were not treated for 2 weeks between the first four injections and the last six injections to allow recovery of the bone marrow depression. The treatment dose-levels of PhAc-ALGP-Dox were: 13.8; 27.6; 55.2; and 82.8 μmol/kg. Doxorubicin 6.9 μmol/kg was used as a reference. Three weeks after the last injection, animals were deeply anaesthetized by intraperitoneal injection of nembutal (50 mg/kg) and exsanguinated. The hearts were carefully collected, rinsed in NaCl 9°/oo and fixed in a 10% formaldehyde solution. Samples were processed for histopathological analysis (CITox Lab, France). The heart was trimmed, embedded in paraffin wax, sectioned at a thickness of 4 microns and stained with hematoxylin-eosin before microscopic evaluation. During the course of the experiment, body weight was controlled before each injection or once a week.

[2] = In vitro cytotoxicity on control fibroblasts (neutral red uptake); assay type: cell-based, mouse; details: mouse, inactivated mouse embryonic fibroblasts (MEF), 20 μg/ml
Experimental: FIG. 5. In vitro cellular toxicity of PhAc-ALGP-Dox and Doxorubicin on Cor.At® cells (mouse embryonic stem cell derived cardiomyocytes). As non-specific control, the test was also performed on inactivated mouse embryonic fibroblasts (MEF). Cells were cultured for 48 h in the presence of drugs and a neutral red uptake test was performed to determine cell viability. Results represent the cytotoxicity curves. The IC50 values were calculated from the cytotoxicity curves using the Prism GraphPad software 5.0.
The in vitro cardiotoxicity test was carried out in a relevant and predictive in vitro model for cardiac safety screening in early lead optimization using mouse embryonic stem cell derived cardiomyocytes (Cor.At®, Axiogenesis (Germany)). Cor.At® cardiomyocytes provide a standardized, homogenous and reproducible cell system for the in vitro classification of a compound's cardio-cytotoxic potential. After incubation with test compounds, the neutral red uptake test was used to determine effects which directly affect the viability and integrity of cardiac cells when compared to a non-specific reference cell type, e.g. mouse fibroblasts (MEF).

[3] = target: T1, FAP (Homo sapiens, UniProt Q12884); experiment: Reactivation assay with purified FAP; assay type: biochemical
T1 sequence (Q12884 1-760): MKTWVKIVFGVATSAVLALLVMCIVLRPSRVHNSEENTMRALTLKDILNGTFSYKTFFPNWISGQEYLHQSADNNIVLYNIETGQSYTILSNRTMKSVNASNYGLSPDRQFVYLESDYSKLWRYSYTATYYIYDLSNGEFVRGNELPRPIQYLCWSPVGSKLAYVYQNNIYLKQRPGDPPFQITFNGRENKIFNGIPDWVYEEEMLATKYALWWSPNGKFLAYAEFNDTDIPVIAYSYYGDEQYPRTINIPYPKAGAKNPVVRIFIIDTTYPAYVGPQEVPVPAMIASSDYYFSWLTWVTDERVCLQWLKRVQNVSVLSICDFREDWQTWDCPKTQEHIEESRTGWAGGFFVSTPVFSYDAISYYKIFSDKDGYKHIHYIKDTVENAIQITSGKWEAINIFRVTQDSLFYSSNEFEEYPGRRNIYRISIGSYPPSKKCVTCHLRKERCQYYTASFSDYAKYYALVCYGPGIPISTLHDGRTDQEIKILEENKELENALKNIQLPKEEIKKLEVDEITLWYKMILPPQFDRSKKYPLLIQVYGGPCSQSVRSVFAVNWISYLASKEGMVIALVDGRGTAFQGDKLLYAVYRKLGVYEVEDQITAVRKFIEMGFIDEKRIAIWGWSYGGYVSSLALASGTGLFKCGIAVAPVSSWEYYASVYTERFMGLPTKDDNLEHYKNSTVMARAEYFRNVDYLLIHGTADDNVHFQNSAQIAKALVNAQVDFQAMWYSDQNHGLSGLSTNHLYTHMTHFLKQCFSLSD
Experimental: TOP (recombinant human thimet oligopeptidase, R&D systems, Ref 3439-ZN) was diluted at 10 nM in a solution of 50 mM Tris-HCl pH 7.4/0.5M NaCl/0.1M DTT. CD26 and FAP were diluted at 1 μg/mL in a Tris-HCl pH 7.5 buffer. Reactions were initiated by addition of 50 μM of each compound to enzymes solutions (1 V enzyme solution+1 V 100 μM drug solution). Samples were incubated for 0, 1, or 3 hours at 37° C. in a water bath in the presence of purified enzymes. Fifty μL of sample were collected at each time point and processed as described above for human plasma. Activation of Suc-βALAL-dox was tested in parallel as a reference.

[4] = In vivo toxicity after single iv bolus injection (body weight); design: species or system OF-1 mice
Experimental: FIG. 1. Effect of PhAc-peptide-Dox conjugates on the body weight of OF-1 normal mice (n=4). […] Results represent the mean body weight evolution.
The in vivo toxicity was evaluated by monitoring body weight.

[5] = Stability in citrated human plasma; details: 5 hours incubation at 37° C. in citrated human plasma (pH7), 50 μM
Experimental: The drug conjugates (50 μM) were mixed with human plasma and incubated for 5 hours at 37° C. in a water bath. […] Supernatant was collected.

[6] = mouse, in vivo, iv, 86.2 umol/kg
[7] = 13.8-82.8 μmol/kg, 10 iv injections

Question: With COc1cccc2c1C(=O)c1c(O)c3c(c(O)c1C2=O)CC(O)(C(=O)CO)CC3OC1CC(NC(=O)C2CCCN2C(=O)CNC(=O)C(CC(C)C)NC(=O)C(C)NC(=O)CP(=O)(O)O)C(O)C(C)O1 (centres unmarked) [PhAc-ALGP-Dox, PhAc-ALGP-doxorubicin] as the compound, how does the “body weight loss (in words)” value [1, 7] read?
Answer: No body weight loss

Question: And the “pathologic microscopic findings in the heart (in words)” value [1, 7]?
Answer: did not induce any pathologic microscopic findings in the heart at any dose levels

Question: What about the “Atrophy; myofiber” value ([1]; mouse, in vivo, iv) of the same compound?
Answer: 0

Question: What about the “Atrophy; myofiber Grade 1” value ([1]; mouse, in vivo, iv) of the same compound?
Answer: 0

Question: And the “Atrophy; myofiber Grade 2” value ([1]; mouse, in vivo, iv)?
Answer: 0

Question: What about the “Degeneration/necrosis; myocardium” value ([1]; mouse, in vivo, iv) of the same compound?
Answer: 0

Question: What about the “Degeneration/necrosis; myocardium Grade 1” value ([1]; mouse, in vivo, iv) of the same compound?
Answer: 0

Question: What about the “Enlarg. Nuclei; myofib.” value ([1]; mouse, in vivo, iv) of the same compound?
Answer: 0

Question: What about the “Enlarg. Nuclei; myofib. Grade 1” value ([1]; mouse, in vivo, iv) of the same compound?
Answer: 0

Question: And the “Infiltration; mix. Cells” value ([1]; mouse, in vivo, iv)?
Answer: 0

Question: What about the “Infiltration; mix. Cells Grade 1” value ([1]; mouse, in vivo, iv) of the same compound?
Answer: 0

Question: And the “Thrombus; atrium” value ([1]; mouse, in vivo, iv)?
Answer: 0

Question: And the “Thrombus; atrium Grade 1” value ([1]; mouse, in vivo, iv)?
Answer: 0

Question: What about the “Vacuolation; myofib.” value ([1]; mouse, in vivo, iv) of the same compound?
Answer: 0

Question: And the “Vacuolation; myofib. Grade 1” value ([1]; mouse, in vivo, iv)?
Answer: 0

Question: And the “Vacuolation; myofib. Grade 2” value ([1]; mouse, in vivo, iv)?
Answer: 0

Question: And the viability at 48 h, 20 µg/mL [2]?
Answer: 81%

Question: And the “hydrolysis by FAP (in words)” value [3]?
Answer: Neither CD26 nor FAP hydrolized; also recorded: did not hydrolyze

Question: And the “maximum body weight loss” value ([4]; 240 μmol/kg single iv, day 28)?
Answer: 15%

Question: What about the “body weight loss (in words)” value ([4]; 320 μmol/kg single iv) of the same compound?
Answer: significant body weight loss

Question: And the mortality ([4]; 320 μmol/kg single iv)?
Answer: one mouse was found dead at day 12

Question: What about the “tolerability (in words)” value ([4]; 240 and 320 μmol/kg single iv) of the same compound?
Answer: well tolerated

Question: What about the MTD ([4]; OF-1, mouse, in vivo, single iv bolus injection, read-out: maximum tolerated dose (MTD)) of the same compound?
Answer: 240 to 320 µmol/kg

Question: And the “times less toxic than Dox” value ([4]; after one intravenous injection)?
Answer: at least 6 times

Question: What about the “% metabolites released: Dox” value [5] of the same compound?
Answer: 2%

Question: What about the “% metabolites released: GP-dox” value [5] of the same compound?
Answer: 0%

Question: And the “% metabolites released: P-Dox” value [5]?
Answer: 0%

Question: What about the total % metabolites [5] of the same compound?
Answer: 2%

Question: Which “Heart AUC of Dox” value [6] does the source give for COc1cccc2c1C(=O)c1c(O)c3c(c(O)c1C2=O)C[C@@](O)(C(=O)CO)C[C@@H]3O[C@H]1C[C@H](N)[C@H](O)[C@H](C)O1 [Doxorubicin, reference compound] here?
Answer: 5863 pmol · h/mg protein
